The values that follow come from publication PMC12047440, “LINE-1 ribonucleoprotein condensates bind DNA to enable nuclear entry during mitosis” (Science Advances, 2024).

In one data set the target is ΔStammer-ORF1p (human). The data set is described as follows: mass photometry; purified ORF1p alone, landing on a glass coverslip; 300 nM ORF1p in 20 mM Hepes pH 7.5, 50 mM KCl, 1 mM MgCl2, 1 mM DTT; also a protein concentration series, a KCl series and 150 mM KCl; monomers to trimers, trimers to hexamers and higher-order oligomers.
Data set [1] concerns the molecule itself. Described as above.
Data set [2] deals with T1, ORF1p WT (Homo sapiens, UniProt Q9UN81 1-338). Nature of the data set: fluorescence anisotropy; 50 mM KCl; 20 mM Hepes pH 7.5, 50 mM KCl (150 or 300 mM in Fig. S1D rows), 1 mM MgCl2, 1 mM DTT; 1 nM 6-FAM oligo; temperature not stated. The following applies: protein: recombinant, tags: tag removed, N-terminal G left, chain copies: 3.
For data set [3], the target named is T2, ORF1p WT (Homo sapiens, UniProt Q9UN81). Nature of the data set: mass photometry; one trimer per RNA; Anisotropy: 20 mM Hepes pH 7.5, 50 mM KCl, 1 mM MgCl2, 1 mM DTT, 1 nM 6-FAM oligo, temperature not stated; DNA curtains: 50, 150 or 300 mM KCl, RNP premix 1 min at room temperature. To be noted: protein: recombinant; tags: tag removed, N-terminal G left; chain copies: 3.

The next data set addresses ΔStammer-ORF1p (Homo sapiens, UniProt Q9UN81 1-338, del91-93). Nature of the data set: fluorescence anisotropy; 50 mM KCl; 20 mM Hepes pH 7.5, 50 mM KCl (150 or 300 mM in Fig. S1D rows), 1 mM MgCl2, 1 mM DTT; 1 nM 6-FAM oligo; temperature not stated. To be noted: protein: recombinant, tags: tag removed by TEV, N-terminal G left, chain copies: 3.
A further data set addresses K3A/K4A-ORF1p (Homo sapiens, UniProt Q9UN81 1-338, K3A;K4A). The description is as above. The following applies: protein: recombinant, tags: tag removed, N-terminal G left, chain copies: 3.
The target in a further data set is T3, His-TEV-ORF1p (Homo sapiens, UniProt Q9UN81 1-338).
T3 chain: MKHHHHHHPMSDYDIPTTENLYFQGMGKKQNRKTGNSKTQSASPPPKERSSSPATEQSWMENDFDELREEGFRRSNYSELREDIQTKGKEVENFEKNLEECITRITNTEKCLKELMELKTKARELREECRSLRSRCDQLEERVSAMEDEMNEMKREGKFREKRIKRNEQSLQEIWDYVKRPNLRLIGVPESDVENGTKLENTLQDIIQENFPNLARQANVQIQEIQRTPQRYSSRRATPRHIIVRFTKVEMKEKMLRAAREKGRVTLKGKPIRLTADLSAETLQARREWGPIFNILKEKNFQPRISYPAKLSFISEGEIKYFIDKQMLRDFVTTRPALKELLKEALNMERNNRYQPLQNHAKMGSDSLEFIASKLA
The description is as above. The following applies: protein: recombinant, tags: uncleaved N-terminal His-TEV, C-terminal ybbR, chain copies: 3.

Data set [4] has as its target T2, ORF1p WT. The data set is described as follows: mass photometry; two-trimer peak more prominent; Anisotropy: 20 mM Hepes pH 7.5, 50 mM KCl, 1 mM MgCl2, 1 mM DTT, 1 nM 6-FAM oligo, temperature not stated; DNA curtains: 50, 150 or 300 mM KCl, RNP premix 1 min at room temperature. The following applies: protein: recombinant; tags: tag removed, N-terminal G left; chain copies: 3.

Data set [5] has as its target T2, ORF1p WT. The data set is described as follows: mass photometry; second peak, two trimers per RNA; Anisotropy: 20 mM Hepes pH 7.5, 50 mM KCl, 1 mM MgCl2, 1 mM DTT, 1 nM 6-FAM oligo, temperature not stated; DNA curtains: 50, 150 or 300 mM KCl, RNP premix 1 min at room temperature. To be noted: protein: recombinant; tags: tag removed, N-terminal G left; chain copies: 3.

The target in data set [6] is T1, ORF1p WT. The data set is described as follows: fluorescence anisotropy; 150 mM KCl; 20 mM Hepes pH 7.5, 50 mM KCl (150 or 300 mM in Fig. S1D rows), 1 mM MgCl2, 1 mM DTT; 1 nM 6-FAM oligo; temperature not stated. The following applies: protein: recombinant; tags: tag removed, N-terminal G left; chain copies: 3; label: 5' 6-FAM (anisotropy); unstructured.
For data set [7], the target named is T1, ORF1p WT. Nature of the data set: fluorescence anisotropy; 300 mM KCl; 20 mM Hepes pH 7.5, 50 mM KCl (150 or 300 mM in Fig. S1D rows), 1 mM MgCl2, 1 mM DTT; 1 nM 6-FAM oligo; temperature not stated. To be noted: protein: recombinant; tags: tag removed, N-terminal G left; chain copies: 3; label: 5' 6-FAM (anisotropy); unstructured.
[8] abbreviates: label: 5' 6-FAM on strand 1 (anisotropy), blunt.
The mark [9] stands for this setting: label: 5' 6-FAM (anisotropy), unstructured.

Substitutions are numbered along the chain they refer to. Numbers in names are those of the source. Where “and” joins values, the source holds several entries; their conditions need not be identical. Identical values can stand only once.

K3A/K4A-ORF1p, sequence (Q9UN81 other isoform, or with tags, fused parts or gaps K3A;K4A): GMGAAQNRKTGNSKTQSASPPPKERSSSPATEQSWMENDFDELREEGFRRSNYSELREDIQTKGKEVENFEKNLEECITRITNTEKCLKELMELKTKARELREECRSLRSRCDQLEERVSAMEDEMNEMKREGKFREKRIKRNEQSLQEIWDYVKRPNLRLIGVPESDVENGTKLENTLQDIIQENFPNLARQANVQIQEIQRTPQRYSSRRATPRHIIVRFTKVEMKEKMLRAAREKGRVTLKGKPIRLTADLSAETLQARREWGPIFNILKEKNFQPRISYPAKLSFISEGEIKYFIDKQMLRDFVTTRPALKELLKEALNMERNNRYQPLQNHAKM

The molecule ΔStammer-ORF1p (natural protein) showed a stoichiometry N with ΔStammer-ORF1p (human) of 6.

B1: WT-ORF1p (LINE-1 ORF1 protein, Homo sapiens) (natural protein, human)
chain: GMGKKQNRKTGNSKTQSASPPPKERSSSPATEQSWMENDFDELREEGFRRSNYSELREDIQTKGKEVENFEKNLEECITRITNTEKCLKELMELKTKARELREECRSLRSRCDQLEERVSAMEDEMNEMKREGKFREKRIKRNEQSLQEIWDYVKRPNLRLIGVPESDVENGTKLENTLQDIIQENFPNLARQANVQIQEIQRTPQRYSSRRATPRHIIVRFTKVEMKEKMLRAAREKGRVTLKGKPIRLTADLSAETLQARREWGPIFNILKEKNFQPRISYPAKLSFISEGEIKYFIDKQMLRDFVTTRPALKELLKEALNMERNNRYQPLQNHAKM
notes: first printed residue of the construct, before the first methionine of ORF1p; left after TEV protease digestion; LINE-1 ORF1p, human, 338 residues as printed; also called pLH2087; source: E. coli BL21(DE3), purified as described previously (19); not shown: His6, N-terminal, cleaved
For B1, the “stoichiometry N” value in [1] is 6 and 3.

B2: K3A/K4A-ORF1p (natural protein, human)
chain: B1 chain with K4A, K5A
notes: first printed residue of the construct, before the first methionine of ORF1p; left after TEV protease digestion; LINE-1 ORF1p, human, with the N-terminal basic patch mutated; also called pLH2075; source: E. coli BL21(DE3), purified as described previously (19); not shown: His6, N-terminal, cleaved
As for B2, the binding result in data set [1] is reported as “binds”.

B3: 30 bp RNA/DNA hybrid (DNA:RNA)
RNA: ACCAUCAUCAAAGACCAAAAGUAGAUAAAA
DNA: TTTTATCTACTTTTGGTCTTTGATGATGGT
In the case of B3, the Kd in the data set with ORF1p WT [2] (label: 5' 6-FAM on RNA, blunt) is 4.68 nM.

B4: 60 nt RNA (ssRNA)
RNA: GGGCGAAUUGGGUACCGGGCCCCCCCUCGAGGCCGGUAGAGGUGUGGUCAAUAAGAGCGA
In the case of B4, the binding result in the data set with ORF1p WT [3] is “binds”.

B5: 30 bp dsDNA (dsDNA)
DNA 1: ACCATCATCAAAGACCAAAAGTAGATAAAA
DNA 2: B3 DNA
On to B5, for which the Kd came out at 26.6 nM with ΔStammer-ORF1p (setting [8]), 21.8 nM with K3A/K4A-ORF1p (setting [8]), 18.9 nM with ORF1p WT [2] (setting [8]) and 28.6 nM with His-TEV-ORF1p (setting [8]).

B6: 30 nt poly(A) (ssRNA)
RNA: AAAAAAAAAAAAAAAAAAAAAAAAAAAAAA
As for B6, the Kd in the data set with ORF1p WT [2] (label: 5' 6-FAM) worked out at 6.01 nM.

B7: 120 nt RNA (ssRNA)
RNA: GGGCGAAUUGGGUACCGGGCCCCCCCUCGAGGCCGGUAGAGGUGUGGUCAAUAAGAGCGACCUCAUACUAUACCUGAGAAAGCAACCUGACCUACAGGAAAGAGUUACUCAAGAAUAAGA
Turning to B7, in the data set with ORF1p WT [4], the binding result is given as “binds”.

B8: 90 nt RNA (ssRNA)
RNA: GGGCGAAUUGGGUACCGGGCCCCCCCUCGAGGCCGGUAGAGGUGUGGUCAAUAAGAGCGACCUCAUACUAUACCUGAGAAAGCAACCUGA
For B8, the binding result with ORF1p WT [5] is “binds”.

B9: 30 nt ssDNA (ssDNA)
DNA: B5 DNA 1
Consider B9, for which, in the data set with ORF1p WT [2] (label: 5' 6-FAM), the Kd stood at 8.27 nM.

B10: 30 nt RNA (ssRNA)
RNA: B3 RNA
Consider B10, for which the Kd in the data set with ΔStammer-ORF1p (setting [9]) came out at 8.06 nM; with K3A/K4A-ORF1p (setting [9]), 11.1 nM; with ORF1p WT [2] (setting [9]), 3.89 nM; with His-TEV-ORF1p (setting [9]), 17.7 nM; with ORF1p WT [6] it was 11.3 nM; in the data set with ORF1p WT [7], 11.9 nM.
